Reference: the RNAGym collection of RNA variant scans (doi:10.1101/gr.219683.116)

B1: mRNA-splicing (parent)
chain: AGUUGCUGCUGGGAGCUCCAGCACAGUGAAAUGGACAGAAGGGCAGAGCAA

Variants of: B1
Assay: exon inclusion enrichment index; higher = more inclusion; WT1 exon 5 minigene, HEK293

Point of comparison: AGUUCUUCUCGGGAGCUCCAGCACAUGGAAAUGGACAGAAGGGCAGAGCAA [G5C C6U G8C C9U U10C G26U U27G], “exon inclusion enrichment index” value 2.97. Against it:
- AGUUCUUCUCGGGAUUUCCAGCACAGUGAAAUGGACAGAAGGGCAGAGCAA [G5C C6U G8C C9U U10C G15U C16U] — lower, 1.32
- AGUUCUUCUCGGGAUGUCCAGCACAGUGAAAUGGACAGAAGGGCAGAGCAA [G5C C6U G8C C9U U10C G15U C16G] — lower, 1.44
- AGUUCUUCUCGGGAGCUCCAGCACAGUGAAAUGGACAGAAGAACAGAGCAA [G5C C6U G8C C9U U10C G42A G43A] — higher, 4.1
- AGUUCUUCUCGGGAGCUCCAGCACAGUGAAAUGGACAGAAGAUCAGAGCAA [G5C C6U G8C C9U U10C G42A G43U] — higher, 3.86
- AGUUCUUCUCGGGAGCUCCAGCACAGUGAAAUGGACAGAAGACCAGAGCAA [G5C C6U G8C C9U U10C G42A G43C] — higher, 4.2
- AGUUCUUCUCGGGAGCUCCAGCACAGUGAAAUGGACAGAACUGCAGAGCAA [G5C C6U G8C C9U U10C G41C G42U] — lower, 2.93
- AGUUCUUCUCGGGAGCUCCAGCACAGUGAAAUGGACAGAACAGCAGAGCAA [G5C C6U G8C C9U U10C G41C G42A] — lower, 2
- AGUUCUUCUCGGGAGCUCCAGCACAGUGAAAUGGACAGAACCGCAGAGCAA [G5C C6U G8C C9U U10C G41C G42C] — higher, 2.99
- AGUUCUUCUCGGGAGCUCCAGCACAGUCUAAUGGACAGAAGGGCAGAGCAA [G5C C6U G8C C9U U10C G28C A29U] — lower, 1.13
- AGUUCUUCUCGGGAGCUCCAGCACAGUCGAAUGGACAGAAGGGCAGAGCAA [G5C C6U G8C C9U U10C G28C A29G] — lower, 2.82
- AGUUCUUCUCGGGAGCUCCAGCACAGUCCAAUGGACAGAAGGGCAGAGCAA [G5C C6U G8C C9U U10C G28C A29C] — lower, 1.58
- AGUUCUUCUCGGGAGCUCCAGCACAGUGAAAUGCUCAGAAGGGCAGAGCAA [G5C C6U G8C C9U U10C G34C A35U] — lower, 0.385
- AGUUCUUCUCGGGAGCUCCAGCACAGUGAAAUGCGCAGAAGGGCAGAGCAA [G5C C6U G8C C9U U10C G34C A35G] — lower, 1.38
- AGUUCUUCUCGGGAGCUCCAGCACAGUGAAAUGCCCAGAAGGGCAGAGCAA [G5C C6U G8C C9U U10C G34C A35C] — lower, 0.141
- AGUUCUUCUCGGGAGCUCCAGCACAGUGAAAUUAACAGAAGGGCAGAGCAA [G5C C6U G8C C9U U10C G33U G34A] — lower, 0.262
- AGUUCUUCUCGGGAGCUCCAGCACAGUGAAAUUUACAGAAGGGCAGAGCAA [G5C C6U G8C C9U U10C G33U G34U] — lower, 0.282
- AGUUCUUCUCGGGAGCUCCAGCACAGUGAAAUUCACAGAAGGGCAGAGCAA [G5C C6U G8C C9U U10C G33U G34C] — lower, 0.547
- AGUUCUUCUCGGGAGCUCCAGCACAGUGAAAUGGACAGAAGGAAAGAGCAA [G5C C6U G8C C9U U10C G43A C44A] — higher, 3.42
- AGUUCUUCUCGGGAGCUCCAGCACAGUGAAAUGGACAGAAGGAGAGAGCAA [G5C C6U G8C C9U U10C G43A C44G] — higher, 3.59
- AGUUCUUCUCGGGAGCUCCAGCACAGUGAAAUGGACAGAAGGAUAGAGCAA [G5C C6U G8C C9U U10C G43A C44U] — lower, 2
- AGUUCUUCUCGGGAGCUCCAGCACAGUGAAAUGGACAGAAGGACAGAGCAA [G5C C6U G8C C9U U10C G43A] — higher, 3.52
- AGUUCUUCUCGGGAGCUCCAUAACAGUGAAAUGGACAGAAGGGCAGAGCAA [G5C C6U G8C C9U U10C G21U C22A] — lower, 0.661
- AGUUCUUCUCGGGAGCUCCAUUACAGUGAAAUGGACAGAAGGGCAGAGCAA [G5C C6U G8C C9U U10C G21U C22U] — lower, 0.512
- AGUUCUUCUCGGGAGCUCCAUGACAGUGAAAUGGACAGAAGGGCAGAGCAA [G5C C6U G8C C9U U10C G21U C22G] — lower, 1.74
- AGUUCUUCUCGGGAGCUCCAAUACAGUGAAAUGGACAGAAGGGCAGAGCAA [G5C C6U G8C C9U U10C G21A C22U] — lower, 0.846
- AGUUCUUCUCGGGAGCUCCAAGACAGUGAAAUGGACAGAAGGGCAGAGCAA [G5C C6U G8C C9U U10C G21A C22G] — lower, 1.93
- AGUUCUUCUCGGGAGCUCCAAAACAGUGAAAUGGACAGAAGGGCAGAGCAA [G5C C6U G8C C9U U10C G21A C22A] — lower, 0.718
- AGUUCUUCUCGGGAGCUCCAGCACAGUUUAAUGGACAGAAGGGCAGAGCAA [G5C C6U G8C C9U U10C G28U A29U] — lower, 0.419
- AGUUCUUCUCGGGAGCUCCAGCACAGUUGAAUGGACAGAAGGGCAGAGCAA [G5C C6U G8C C9U U10C G28U A29G] — lower, 1.84
- AGUUCUUCUCGGGAGCUCCAGCACAGUUCAAUGGACAGAAGGGCAGAGCAA [G5C C6U G8C C9U U10C G28U A29C] — lower, 1.48
- AGUUCUUCUCGGGAGCUCCAGCACAGUGAAAUGCACAGAAGGGCAGAGCAA [G5C C6U G8C C9U U10C G34C] — lower, 0.84
- AGUUCUUCUCGGGAGCUCCAGCACAGUGAAAUGAACAGAAGGGCAGAGCAA [G5C C6U G8C C9U U10C G34A] — lower, 1.17
- AGUUCUUCUCGGGAGCUCCAGCACAGUGAAAUGUACAGAAGGGCAGAGCAA [G5C C6U G8C C9U U10C G34U] — lower, 0.391
- AGUUCUUCUCGGGAGCUCCAGCACAGUCAAAUGGACAGAAGGGCAGAGCAA [G5C C6U G8C C9U U10C G28C] — lower, 1.55
- AGUUCUUCUCGGGAGCUCCAGCACAGUAAAAUGGACAGAAGGGCAGAGCAA [G5C C6U G8C C9U U10C G28A] — lower, 0.598
- AGUUCUUCUCGGGAGCUCCAGCACAGUUAAAUGGACAGAAGGGCAGAGCAA [G5C C6U G8C C9U U10C G28U] — lower, 0.486
- AGUUCUUCUCGGGAGCUCCAGCACAUCGAAAUGGACAGAAGGGCAGAGCAA [G5C C6U G8C C9U U10C G26U U27C] — higher, 3.41
- AGUUCUUCUCGGGAGCUCCAGCACAUAGAAAUGGACAGAAGGGCAGAGCAA [G5C C6U G8C C9U U10C G26U U27A] — lower, 0.886
- AGUUCUUCUCGGGAGCUCCAGCACAGUGAAAUGGACAGAAAUGCAGAGCAA [G5C C6U G8C C9U U10C G41A G42U] — lower, 1.71
- AGUUCUUCUCGGGAGCUCCAGCACAGUGAAAUGGACAGAAAAGCAGAGCAA [G5C C6U G8C C9U U10C G41A G42A] — lower, 1.54
- AGUUCUUCUCGGGAGCUCCAGCACAGUGAAAUGGACAGAAACGCAGAGCAA [G5C C6U G8C C9U U10C G41A G42C] — lower, 2.67
- AGUUCUUCUCGGGAGCUCCACAACAGUGAAAUGGACAGAAGGGCAGAGCAA [G5C C6U G8C C9U U10C G21C C22A] — lower, 1.71
- AGUUCUUCUCGGGAGCUCCACUACAGUGAAAUGGACAGAAGGGCAGAGCAA [G5C C6U G8C C9U U10C G21C C22U] — lower, 1.79
- AGUUCUUCUCGGGAGCUCCACGACAGUGAAAUGGACAGAAGGGCAGAGCAA [G5C C6U G8C C9U U10C G21C C22G] — higher, 3.01
- AGUUCUUCUCGGGAGCUCCAGCACAGUGAAAUGGACAGAAGCCCAGAGCAA [G5C C6U G8C C9U U10C G42C G43C] — lower, 2.72
- AGUUCUUCUCGGGAGCUCCAGCACAGUGAAAUGGACAGAAGCACAGAGCAA [G5C C6U G8C C9U U10C G42C G43A] — lower, 2.79
- AGUUCUUCUCGGGAGCUCCAGCACAGUGAAAUGGACAGAAGCUCAGAGCAA [G5C C6U G8C C9U U10C G42C G43U] — lower, 2.87
- AGUUCUUCUCGGGAGCUCCAGCACAGUGAAAUGACCAGAAGGGCAGAGCAA [G5C C6U G8C C9U U10C G34A A35C] — lower, 1.47
- AGUUCUUCUCGGGAGCUCCAGCACAGUGAAAUGAGCAGAAGGGCAGAGCAA [G5C C6U G8C C9U U10C G34A A35G] — lower, 0.76
- AGUUCUUCUCGGGAGCUCCAGCACAGUGAAAUGAUCAGAAGGGCAGAGCAA [G5C C6U G8C C9U U10C G34A A35U] — lower, 0.568
